According to article PMC7062162:

What was measured:
[1] = molecular target: I9E peptide-DR1 complex (human); test: fluorescence polarisation; real-time fluorescence anisotropy of Alexa Fluor 488-peptide leaving DR1 (50 nM complex) with titrated HLA-DM (up to 90 μM) and 20 μM unlabeled competitor peptide; 250 mM citrate, 150 mM NaCl, pH 5.0, 37 °C; kobs fitted to a Michaelis-Menten model, Km taken as Kd of DM for the pMHCII (OPT1-DR1: initial velocities, Lineweaver-Burk)
[2] = molecular target: L4R peptide-DR1 complex (human)
[3] = molecular target: L4G peptide-DR1 complex (human)
[4] = molecular target: L4G′ peptide-DR1 complex (human)
[5] = molecular target: Y1I peptide-DR1 complex (human)
[6] = molecular target: OPT1 Y1A peptide-DR1 complex (human)
[7] = molecular target: 0410 Y1A peptide-DR1 complex (human)
[8] = molecular target: A6E peptide-DR1 complex (human)
[9] = molecular target: A6G peptide-DR1 complex (human)

soluble recombinant HLA-DM (DMA*0101/DMB*0101) (complex)
fold decrease in Km against the homologous complex with Ile at P9 [1]: 9 fold
kcat, fold change against OPT1-DR1 [2]: > 1300 fold
kcat, fold change against OPT1-DR1 [3]: > 120 fold
kcat, fold change against the I9E complex [4]: 510 fold
kcat, fold change against the homologous complex with Tyr at P1 [5]: 18 fold
kcat, fold change against OPT1-DR1 [6]: > 2600 fold
kcat, fold change against the 0410 complex [7]: 8 fold
kcat, fold change against OPT1-DR1 (A6E) [8]: > 200 fold
kcat, fold change against the A6G complex (G6E) [8]: > 100 fold
kcat, fold change against OPT1-DR1 [9]: 2 fold
